Results as given in patent US20240207311A1, “TUMOR INFILTRATING LYMPHOCYTES THERAPY” (Alethia Biotherapeutics Inc., priority 2021, published 2024).
“Also recorded” adds a separate entry of the source.

B1: AB-16B5: anti-clusterin antibody, murine 16B5 (VL SEQ ID NO:7, VH SEQ ID NO:8), used in the mouse studies (antibody, V domains shown)
VH: EVQLQQSGAELVKPGASVRLSCTTSGFNIKDIYMHWVKQRPEQGLEWIGRIDPAYGNTKYDPKFQGKATITADTSSNTAYLQLSSLTSEDTAVYYCARRYDTAMDYWGQGTSVTVSS
VL: DIVMSQSPSSLAVSAGEKVTMSCKSSQSLLNSRTRKNYLAWYQQKPGQSPKLLIYWASTRESGVPDRFTGSGSGTDFTLTISSVQAEDLAVYYCKQSYNLWTFGGGTKLEFK
modifications: Murine 16B5 VH; Murine 16B5 VL

Experiments:
Assay type in all cases: in vivo, Balb/c mice
4T1 primary tumors = experiment: CD45+ immune cells purified from excised 4T1 primary tumors (Example 2); conditions: monotherapy (Group 2 docetaxel; Group 5 AB-16B5); primary tumors excised at Day 16
Source text: The primary tumors excised at Day 16 post implantation, were processed with collagenase and hyaluronidase and immune cells were purified by positive selection using magnetic latex beads coated with an anti-CD45 antibody. The purified cells were transferred into small petri dishes containing culture medium supplemented with IL2 and IL7 to perform phenotypic analyses.

[1] = system: 4T1 mouse mammary carcinoma cells; experiment: Number of metastatic lung nodules in 4T1-implanted animals (Example 2); conditions: monotherapy IP for 5 weeks (Group 2 docetaxel 10 mg/kg weekly; Group 5 AB-16B5 twice weekly); counted Day 37
Description: Five groups, each consisting of 10 female Balb/c mice were assigned to this study (see Table 1 below). All animals received subcutaneous implantation of 4T1 mouse mammary carcinoma cells in the 4th inguinal mammary gland. Treatment was initiated on the day of implantation (defined as Day 1). Animals from Group 1 (Gr. 1) received IP treatment of saline vehicle control twice a week for the duration of the study. Animals from Group 2 (Gr. 2) received 10 mg/kg of docetaxel weekly for five weeks by IP administration. Animals from Group 3 (Gr. 3) received 10 mg/kg of docetaxel weekly for two weeks and 10 mg/kg of AB-16B5, twice weekly for five weeks. Animals from Group 4 (Gr. 4) received 10 mg/kg of docetaxel weekly and 5 mg/kg of 16B5 twice weekly each over the course of a five weeks treatment. Animals from Group 5 (Gr. 5) received AB-16B5 twice weekly for five weeks. On Day 36, the primary tumors were excised and on Day 37, the animals were sacrificed and the number of grossly visible metastatic nodules on the surface of the lungs was counted.

4T1 lung metastases = experiment: Immunohistochemistry of lung metastases in 4T1-implanted mice (Example 1); conditions: 10 mg/kg IP thrice a week
Source text: Balb/c mice were orthotopically implanted with 5×10^5 4T1 cells in the 4th mammary fat pad. Animals received IP saline treatment thrice weekly. The primary tumor was surgically removed at Day 16 post-implantation. The animals were sacrificed at Day 36 and the lungs were excised. Tissues were fixed in paraformaldehyde and processed for paraffin embedding. Tissue sections were probed with anti-mouse CD3, anti-mouse CD8 and anti-mouse B220 antibodies. […] Results presented in FIG. 1 indicate that the 4T1 lung metastases create an immune cold microenvironment which prevents the infiltration of B and T lymphocytes in tumors. Delineated regions indicate that CD3 and CD8 T lymphocytes are restricted in the tumor margin as a consequence of EMT.
Animals bearing 4T1 tumors were treated with the AB-16B5 antibody (murine 16B5) thrice a week IP at 10 mg/kg. The primary tumor was surgically removed at Day 16 post-implantation. The animals were sacrificed at Day 36 and the lungs were excised. Tissues were fixed in paraformaldehyde and processed for paraffin embedding. Tissue sections were probed with anti-mouse CD3, anti-mouse CD8 and anti-mouse B220 antibodies.

| Molecule | CD45+ immune cells in primary tumors (4T1 primary tumors) | metastatic lung nodules [1] | plasmocytes penetration in tumors (4T1 lung metastases; Day 36) | T lymphocyte infiltration of lung metastases (4T1 lung metastases; Day 36, anti-CD3, anti-CD8 staining) | lung metastases (number and size) (4T1 lung metastases; lungs excised Day 36, FIG. 2) |
| --- | --- | --- | --- | --- | --- |
| CC(=O)O[C@@]12CO[C@@H]1C[C@H](O)[C@@]1(C)C(=O)[C@H](O)C3=C(C)[C@@H](OC(=O)[C@H](O)[C@@H](NC(=O)OC(C)(C)C)c4ccccc4)C[C@@](O)([C@@H](OC(=O)c4ccccc4)[C@H]21)C3(C)C [docetaxel] | very few CD45+ were present | as many metastatic lung nodules as the saline control group; also recorded: relatively ineffective |  |  |  |
| B1 | more immune cells | less metastatic lung nodules than the saline-control-treated mice | evidence of plasmocytes penetration | densely infiltrated with CD3 and CD8 T cells | fewer and much smaller lung metastases |
